From PMC10808224, “Lsr2 acts as a cyclic di-GMP receptor that promotes keto-mycolic acid synthesis and biofilm formation in mycobacteria” (Nature Communications, 2024)

Assays:
[1] = target: Lsr2Mtb (Lsr2BCG in main text) (Mycobacterium tuberculosis) (UniProt P9WIP7); assay: EMSA
[2] = target: Lsr2Msm (Mycobacterium smegmatis mc2 155) (UniProt A0R576); assay: EMSA; conditions: EMSA: 50 mM Tris-HCl pH 7.5, 50 mM NaCl, 10% glycerol, 30 uL, room temperature 15 min; 8% native PAGE in 0.5x TBE

Sequence	binding [1]	binding [2]
CCGCTCGGATCGGGGTTCCGTCGGCCCTGGCGCTGGGTGCGGCCGGCGGCGCGTTGGCGGCTCTAGCCTCTAGACGCCAATCACGCTGATAAGCTGCGCCGTTAGCCTGGCGACGATGCGGCCCGCGCAGCGGGGCGAGGAGGAGCCGGGCAATAGGGCCCAGCCTGGCGACGATGCGACCCGCGCAGCGGGGCGAGGAGGAGCCGGGCAATAGGGCTTAGCAACTATTCGAGCGGAGGGCGGCAGCGGCATGACAGTTCCCGAAGAAGCCCAGACACTGATCGGCAAGCATTATCGGGC (double strand) [hadDMtbp / hadDBCGp]	binds	
TAGTCGGGGTAGCGGTAGTGAGTCCCGATGATGTTTGCCGCGATGCTCATGTGTTCTCTGCTACTCCCGTGCTTCCAGCTTCAACTGCCCGGCTGCGGAAGCCTATCAGCGTGGGGGTTCAGCGAATGTCAGCGAAGGTCAGCGAAGGTCATGGCGGCGGGAGGCCACCGCGGCCAGCGCGCCGCCGAGCGCCCCTAGGGCCAGCGCGGACGGCACACCGATGCGGGCCGCTTTGCGGGCCGTGCGGAAGTCGCGGATCTCCCAGCCGCGTTCCCGCGCGACGTCGCGCAGCGCGGCGTC (double strand) [hadDMsmp]		binds
